{"source": "the nanobody polyreactivity screen of Harvey et al. (2022)"}
{"test": "yeast display, Sf9 membrane polyspecificity reagent, FACS + sequencing; frameworks hold sequencing errors", "method_in_brief": "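Nanobodies from a synthetic yeast display library (Saccharomyces cerevisiae BJ5465), induced 36–48 hours with galactose, were stained 1 hour at 4 °C with 10% biotinylated, detergent-solubilized Sf9 membrane reagent, enriched on streptavidin microbeads, then FACS-sorted. Anti-HA (expression) and streptavidin (reagent binding) fluorescence set low and high (top ~1%) gates. Polyreactivity labels come from the gate of origin. Genes were colony-PCR amplified, MiSeq 2 × 250 sequenced and filtered by CDR length.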"}
{"sequence": "QVQLVESGGGLVQAGGSLRLSCAASGSTFGHYAMGWYRQAPGKERELVAGITYTDNHELRRLCEGRFTISRDNAKNTVYLQMNSLKPEDTAVYYCNADDTYYPLGGITGYDYWGQGTQVTVSS", "polyreactivity (PSR sort gate)": "low polyreactivity"}
{"sequence": "QVQIVESGGGLVQAGGSLRLSCAASGFTFPHNAMGWYRQAPGKERELVAAITSSGGSTYYADSVKGRFTISRDNAKNPVYLEMNSLKPEDTAVYYCAAYWAYGGYESWGQGTQVTVSS", "polyreactivity (PSR sort gate)": "high polyreactivity"}
{"sequence": "QVQLVESGGGLVQAGGSLRLSCAASGRTLPYYMGWYRQAPGKERELVAAITNGDSTYYADSVKGRFTISRDNAKNTVYLQMNSLKPEDTAVYYCNVVTYVKYGYWGQGTQVTVSS", "polyreactivity (PSR sort gate)": "high polyreactivity"}
{"sequence": "QVQLVESGGGLVQAGGSLRLSCAASGSTLYDYTMGWYRQAPGKERELVAAIRVSGARTFYADSVKGRFTISRDNAKNTVYLQMNSLKPEDTAVYYCAAEFGSFVSPYNYYYWGQGTQVTVSS", "polyreactivity (PSR sort gate)": "low polyreactivity"}
{"sequence": "QVQLVESGGGLVQAGGSLRLSCAASGFIFADYAMGWYRQAHGKERELVAAITRSGGRTYYADSVKGRFTISRDTAKNTVYVQMNSLKPDDTAVYYCNAGYAHTYDYWGQGTQVTVSS", "polyreactivity (PSR sort gate)": "high polyreactivity"}
{"sequence": "QVQLVESGGGLVQAGGSLRLSCAASGRTMAVYAMGWDRQAPGKEREVVAAISWSGGTTYYADSVKGRFTISRDNAKNTVYLQMNSLKAEDTAVYYCAADSYTEVDYWGQGTQVTVSS", "polyreactivity (PSR sort gate)": "low polyreactivity"}
{"sequence": "QVQLVESGGGLVQAGGSLRLSCAASGFISDGNYMGWYRQAPGKERELVAAISSGATTHYADSVKGRFTISRDNAKNTVYLQMNSLKPEDTAVYYCNRGDDWRYDYWGQGTQVTVSS", "polyreactivity (PSR sort gate)": "low polyreactivity"}
{"sequence": "QVQLVDSGGGLVQAGGSLRLSCAASGSTFYFKAMGWYRQAPGKEREFVATIRSGGSTYYADSVKGRFTISRDYAKNSVYLQMNSLTPEDTAVYYCAADLVDSYQWSIFLYGYWGQGTQVTVSW", "polyreactivity (PSR sort gate)": "low polyreactivity"}
{"sequence": "QVQLVESGGGLVQAGGSLRLICAASGFTFGEYAMGWYRQAPGKERDFVASISWDGASTYYADSVKGRFTISRDNAKNTVYLQMKSLKPEDTAVYYCAATRYYSFWGQGTQVTVSS", "polyreactivity (PSR sort gate)": "low polyreactivity"}
{"sequence": "HVQLVESGGGLVQAGGSLRLSCAASGSIFNSNGMGWYRQATGKERELVAAITGGGSTNYADSVKGRFTISRDNAKNTVYLQMNSLKPEDTAVYYCAARPLRTDWAYYYWGQGTQVTVSS", "polyreactivity (PSR sort gate)": "low polyreactivity"}
{"sequence": "QLQLVESVGGLVQAGGSLRLSCAASGGIFNVNALGWYRQAPGKERELVAAISLSGSNTYYADSVKGRFTISRDNAKNTVYLQMNSLKPEDTAVYYCNADYVYRRYGYWGQGTQVTVSS", "polyreactivity (PSR sort gate)": "high polyreactivity"}
{"sequence": "QVQRVESGGGLVKAGGRLRLSSAASGGTFKRYTMGWYRQAPGKETELVARIHYRTGSTYYADSVKGRFTISRDNAKNTVYLQMNSLKPEDTAVYYCAAREWYGFAFDYWGQGTQVTVSS", "polyreactivity (PSR sort gate)": "high polyreactivity"}
{"sequence": "QVQLVESGGGLVQAGGSLRLSCAASGFIFNRYAMGWYRQAPGKERELVAAISFSGGSTYYADSVKGRFTISRDNAKNTVYLQMNSLKPEDTAVYYCAASWYRYGYWGQGTQVTVSS", "polyreactivity (PSR sort gate)": "high polyreactivity"}
{"sequence": "QVQLVESGGGLVQAGGSLRLTCAASGSTFISYAMGWYRPAPGKERELVAAISRRGDSTYYADSVKGRFTISRDNAKYTVYLQMKSLKPEDTAVYYCAADSYPAYLGFVGFDYWRQGTQVTVSS", "polyreactivity (PSR sort gate)": "low polyreactivity"}
{"sequence": "QVQLVESGGGLVQAGGSLRLSCAASGSSIYSYAMGWYRQEPGKERELVAAITTSGGSTYYADSVKGRFTISRDNAKNTDYLQMNSLKPEDTAVYYCNAYFIYEGGWYYKAQYDYWGQGTQVTVSS", "polyreactivity (PSR sort gate)": "low polyreactivity"}
{"sequence": "QVQLVESGGGLVQAGGSLRLSCAASGFTLAGYAMGWYRQAPGKERELVAAITSSGGSTFYADSVKGRFTISRDNAKNTVYLQMNSLKPEDTAVYYCAAKWAVVSGYGYWGQGTQVTVSS", "polyreactivity (PSR sort gate)": "high polyreactivity"}
{"sequence": "QVQLVESGGGLVQAGGSLRLICAASGITFTGYAMGWYTQAPGKERELVAVISETGGSTYADSVKGRFTISRDNAKNTVYLQMNSLKPEDTAVYYCAARLWWPYSTAWAKMDYWGQGTQVTVSS", "polyreactivity (PSR sort gate)": "low polyreactivity"}
